Peptide text beside a SMILES is read from it. * marks the point of attachment. DOTA = O=C(O)CN1CCN(CC(=O)O)CCN(CC(=O)*)CCN(CC(=O)O)CC1; PEG3 = NCCOCCOCCOCCC(=O)O

Data set [1] can be described thus: in vivo. As to conditions: nude, mouse, iv, 1 mg/kg, total radioactivity. As to the method: For biodistribution assay ex vivo, the PANC-1 tumor model mice were euthanized by pentobarbital sodium at 1 h after tracer administration. The blood was harvested via cardiac puncture, and the different organs/tissues were isolated, weighed, and counted on a γ-counter for radioactivity. The amount of the injected radiotracer was measured and used to determine the total number of counts of nuclei decay per minute (CPM) by comparison with a standard of known activity. The data were background- and decay-corrected and expressed as percentages of the injection dose per tissue weight in grams (%ID/g).

Data set [2] in a line: in vivo. The note with it: nude, mouse, iv, 1 mg/kg, total radioactivity. As for the experimental part: Peptide conjugate P144-DOTA and the radiolabeled tracer [^68Ga]Ga-P144 were both administrated through tail vein injection. The chemical dose of [^68Ga]Ga-P144 was 1 mg/kg, and the radioactive dose was approximately 3.7 MBq in 200 μL per mouse. As a competitive blocker with the same target TGFβ, the dose of DOTA-P144 was 100 mg/kg (47.3 μmol/kg, 100 times the mass dose of the radiolabeled peptide conjugate), and the administration of this unlabeled peptide conjugate was followed after 10 min by 1 mg/kg of the radiolabeled tracer [^68Ga]Ga-P144. All the mice were deprived of food and water for 1 h before drug administration. Then, the mice were anesthetized with pentobarbital sodium (45 mg/kg) and scanned with microPET. […]
The tumor-bearing mice were anesthetized with pentobarbital sodium before microPET scanning. […] The body temperature of the mice was monitored by a rectal probe and kept at 37°C by a heated air stream. […] Images were processed and analyzed using PMOD4.2 software (PMOD Technologies Ltd., Zurich, Switzerland). […] Radioactivity values of the ROIs per unit volume were obtained, and the percentage of injected dose per tissue weight in gram (%ID/g) values of the different organs and tissues were calculated as follows: […]
This is another data set of the same source.

In the next data set the test system is PC3 cells. Briefly: Cell uptake (internalization) assay in PC3 cells. The note with it: 200 MBq/L, 0.5-5 h incubation, FCS-free medium, γ-counter, three series. The class given is cell-based. As for the experimental part: (§1) The method process for cell uptake assay of radiolabeled drug was as follows. First, the selected cell lines were inoculated into a 6-well plate, incubated for 48 h to achieve a cell coverage rate of approximately 80%–90% (1.2–2 × 10^6 cells/well), and replaced with 1 mL of fresh culture medium without fetal calf serum (FCS). Then, a certain amount of radionuclide-labeled drug (200 MBq/L) was added to the culture well and incubated for different times (0.5–5 h). The culture medium containing the drug was removed, and the cells were washed twice with 1 mL of phosphate-buffered saline (PBS) (pH 7.4). Cells were incubated with 1 mL of glycine HCl solution (1 M, pH 2.2) at room temperature for 10 min to remove surface binding, and the cells were washed with 2 mL of ice-cold PBS (collect washing solution for detection of binding amount). After that, 1.4 mL of lysis buffer (0.3 M of NaOH, 0.2% sodium dodecyl sulfate (SDS)) was used to lyse the cells and collect this lysate. With a γ-counter, the radioactive activity in the collected lysate was measured, and the %AD value was calculated. One mio (1 × 10^6) of cells was adopted for normalization, with the result representing the internalization uptake level of the tested radiopharmaceutical by this cell line. Each experiment was repeated three times independently, with three multiple wells set at each processing time point.

A further data set deals with PANC-1 cells. Briefly: Cell uptake (internalization) assay in PANC-1 cells. The class given is cell-based, human. The note with it: 200 MBq/L, 0.5-5 h incubation, FCS-free medium, γ-counter, %AD per 1 × 10^6 cells, three series. As to the method:
as §1

Data set [3] can be described thus: in vivo. The note with it: nude, mouse, iv, 1 mg/kg, total radioactivity. As to the method:
(§2) Pancreatic cancer cell line PANC-1 was obtained from the ATCC, and cells were cultured in complete RPMI1640 medium supplemented with 10% fetal calf serum (Life Technologies, Carlsbad, CA, USA). One portion of the PANC-1 cells (~1 × 10^6) was injected subcutaneously below the anterior axillary of the nude mice to induce the mouse heterotopic tumor model. The tumor cells were suspended in a mixture (v/v, 1:1) of medium and Matrigel (Corning Life Sciences, Corning, NY, USA). The tumor xenografts were generally palpable within 10 days after injection. Xenograft tumor sizes of the model mice were measured every 3 days. Short and long tumor diameters, tumor volume, and body weight were measured. When the xenograft tumor grew to a volume of 150–200 mm^3, the mice were used for PET imaging study. A diagnostic tracer and drug were injected approximately 2 weeks after the establishment of the tumor model.
(§3) Peptide conjugate P144-DOTA and the radiolabeled tracer [^68Ga]Ga-P144 were both administrated through tail vein injection. The chemical dose of [^68Ga]Ga-P144 was 1 mg/kg, and the radioactive dose was approximately 3.7 MBq in 200 μL per mouse. As a competitive blocker with the same target TGFβ, the dose of DOTA-P144 was 100 mg/kg (47.3 μmol/kg, 100 times the mass dose of the radiolabeled peptide conjugate), and the administration of this unlabeled peptide conjugate was followed after 10 min by 1 mg/kg of the radiolabeled tracer [^68Ga]Ga-P144. All the mice were deprived of food and water for 1 h before drug administration. Then, the mice were anesthetized with pentobarbital sodium (45 mg/kg) and scanned with microPET. After the last scanning, the mice were anesthetized with 2% pentobarbital sodium at 65 mg/kg intraperitoneally and then executed by dislocation of their cervical vertebra, and the tissues were harvested for analysis.
(§4) The tumor-bearing mice were anesthetized with pentobarbital sodium before microPET scanning. Each mouse was intravenously injected with approximately 3.7 MBq (90–120 μCi) of [^68Ga]Ga-P144. After administration, the mice were scanned by a small animal PET system (Inveon, Siemens, Munich, Germany). The body temperature of the mice was monitored by a rectal probe and kept at 37°C by a heated air stream. The scanning time was set as follows: static PET scanning for 10 min and scanning energy window 350–650 keV at four time points (1 h, 2 h, 3 h, and 4 h) after the injection. MicroPET image reconstruction was performed using a 3D OSEM PSF algorithm with five iterations. Images were processed and analyzed using PMOD4.2 software (PMOD Technologies Ltd., Zurich, Switzerland). Regions of interest (ROIs) of the brain, heart, liver, lungs, kidney, muscle, and tumor were delineated. Radioactivity values of the ROIs per unit volume were obtained, and the percentage of injected dose per tissue weight in gram (%ID/g) values of the different organs and tissues were calculated as follows:
(§5) %ID/g=radiouptake in ROI(kBq/g)/injection dose(kBq)×100.
This is another data set of the same source.

Data set [4] has as its system PANC-1 tumor-bearing mice. Briefly: in vivo. The note with it: mouse. As to the method: as §2, §3, §4, §5
Data set [5] can be described thus: Radio-HPLC radiochemical purity after standing at room temperature (stability). The format is physicochemical. The note with it: C18, room temperature, 4 h after synthesis. As for the experimental part: Radio-HPLC and radio-iTLC assays were conducted for the quality control of product [^68Ga]Ga-DOTA-P144 and free [^68Ga] ions. American alltech1500 high-performance liquid chromatography and online radioactive detector were used. Chromatographic column: YMC-Pack Pro C18 RS (5 μm, 250 mm × 4.6 mm). Mobile phase: A) water + 0.1% formic acid; B) acetonitrile. Method: 0 min, 95% A and 5% B; 1 min, 95% A and 5% B; 10 min, 70% A and 30% B; 18 min, 70% A and 30% B; 25 min, 95% A and 5% B; flow speed, 1 mL/min. The quality control standard was that the chemical and radiochemical purities of the products were greater than 95%. Radio-iTLC analytical quantification methods/conditions were as follows. The stationary phase was iTLC glass fiber (1 cm × 8 cm instant silica gel strip), and the developing solvent was 2 mM of sodium citrate/citric acid buffer solution (pH 6.5). performed according to General Rule 1401 in Chinese Pharmacopoeia (2020 Edition), the method for the determination of radioactive drugs, the Rf value of the radioactive peak of the product to be tested was approximately 0.1–0.4, and there was a single main peak under normal conditions. If there were impurities, especially free [^68Ga] ions, the corresponding peaks should appear at the Rf value of approximately 0.6–0.8. […]

The next data set concerns human glioblastoma cells. As to conditions: ref [28]; cited from earlier work. The source says: TGFβ-specific blocking peptide P144 selected in this study was an analog of the essential structure for ligand recognition and binding in the extracellular domain of TGFβR3, which has high specificity and affinity to TGFβ ([36]). […] The doses of th ...

The tissue uptake is the share of the injected amount in each gram of the tissue. Consider `CC[C@H](C)[C@H](NC(=O)[C@H](CO)NC(=O)[C@H](C)NC(=O)[C@H](CC(=O)O)NC(=O)[C@H](CC(C)C)NC(=O)[C@H](CO)NC(=O)[C@@H](NC(=O)CCOCCOCCOCCNC(=O)CN1CCN(CC(=O)O)CCN(CC(=O)O)CCN(CC(=O)O)CC1)[C@@H](C)O)C(=O)N[C@@H](Cc1c[nH]c2ccccc12)C(=O)N[C@@H](C)C(=O)N[C@@H](CCSC)C(=O)N[C@@H](CCSC)C(=O)N[C@@H](CCC(N)=O)C(=O)N[C@@H](CC(N)=O)C(=O)N[C@@H](C)C(N)=O` [[^68Ga]Ga-P144, metal not drawn] ({DOTA-PEG3}-TSLDASIWAMMQNA-NH2; N-terminus and C-terminus assumed), for which the tissue uptake at 1 h in the data set “in vivo [1]” (ex vivo radioactive biodistribution in heart) is 4.89 ± 0.899 %ID/g; in “in vivo [1]” (ex vivo radioactive biodistribution in kidney) it was 2.98 ± 0.854 %ID/g; in “in vivo [1]” (ex vivo radioactive biodistribution in liver), 1.95 ± 0.717 %ID/g; in “in vivo [1]” (ex vivo radioactive biodistribution in lung) it was 3.16 ± 0.429 %ID/g; in “in vivo [1]” (ex vivo radioactive biodistribution in tumors), 4.63 ± 1.22 %ID/g; in the data set “in vivo [2]”, 5.36 ± 0.937 %ID/g. In addition, the tissue uptake at 1 h in the data set “in vivo [3]” (uptake in heart) stood at 5.74 ± 1.68 %ID/g; in “in vivo [3]” (uptake in kidneys), 3.32 ± 0.636 %ID/g; in “in vivo [3]” (uptake in liver) it was 4.01 ± 0.975 %ID/g; in the data set “in vivo [3]” (uptake in lung) it was 3.56 ± 0.739 %ID/g; in “in vivo [3]” (uptake in tumors), 5.76 ± 1.21 %ID/g. Also, in the data set on PC3 cells, the “cell uptake ratio (non-specific cellular uptake)” value was “very low level”. In addition, the “cell uptake ratio (internalization)” value with PANC-1 cells is “high and persistent”. Moreover, the tissue to tissue ratio at 1 h in “in vivo [3]” was 3.44 ± 1.53. Besides, in “in vivo [3]”, the tissue to tissue ratio at 4 h was determined as 3.77 ± 1.18. The tissue uptake at 4 h worked out at 3.92 ± 0.891 %ID/g in the data set “in vivo [3]” (uptake in heart); 2.8 ± 0.281 %ID/g in the data set “in vivo [3]” (uptake in kidneys); 2.91 ± 0.431 %ID/g in “in vivo [3]” (uptake in liver); 2.19 ± 0.206 %ID/g in the data set “in vivo [3]” (uptake in lung); 6.02 ± 1.37 %ID/g in the data set “in vivo [3]” (uptake in tumors). This molecule also showed a tumor retention time in data set [4] above 4 h. In data set [5], the “radiochemical purity after purification and placement at room temperature for 4 h” value was determined as 98.87%.

As to TSLDASIWAMMQNA [P144], the “growth and proliferation of human glioblastoma cells” value in the data set with human glioblastoma cells was “significantly inhibit”.

(Values after publication PMC10540840, “PET imaging with [^68Ga]-labeled TGFβ-targeting peptide in a mouse PANC-1 tumor model” (Frontiers in Oncology, 2023).)
